The text below walks through data of the RNAGym collection of RNA variant scans (doi:10.7554/elife.90254).

First the molecules themselves.
B1: LINE1-full (parent)
chain: UACGUAGGUGGUUUUCCCCUGAUAGUGCUAAGGGGGCCUGGAAGUUUGGACUGGGCAGAGCUCAACACAGCGUGGCAAAGUGGCUGUGGCUAGACUGCCUCUCUGGAUUCCUCGUCACUCAGCAGGGCAUCUCUGAGAGAAAUGCC

Variants of B1 are the subject of the series. In words: self-cleavage, relative activity (ratio to wild type); higher = more cleavage; in vitro, sequencing; the parent is a self-cleaving ribozyme.
Consider C63A A65G, for which the self-cleavage was found to be 0.02.
Consider C63U U87A, for which the self-cleavage was found to be 0.07.
In the case of G60U A121G it was 0; in that of U62C C128U, 0.03.
The same measure for U62G A67G: 0.09; for A59U A117U: 0.8; for U62A U134A: 0.07.
In the case of A59U U87C it was 0.22; in that of G60C U102C, 0.06.
As to A59U U62C, the self-cleavage came to 0.06.
Take A59U U62G: the self-cleavage was 0.04.
Turning to A59U U62A, the self-cleavage amounted to 0.05.
In the case of A59U U81A it was 1.53.
The same measure for A59U U81C: 0.87; for C61U U87C: 0.03; for A64C A69U: 0.05.
In the case of U62A G72C it was 0.03; in that of U62A G72A, 0.01; in that of A59U U134C, 0.92.
A59U G114A: the self-cleavage is 0.54.
The same measure for U62C U85G: 0; for U62C A107U: 0.06; for U62C A138U: 0.01.
As to G60A A140U, the self-cleavage was 0.03.
Turning to A59U A67U, the self-cleavage is 0.1.
In the case of G60A C99A, the self-cleavage is 0.05.
On to U62C C123U, for which the self-cleavage turned out to be 0.01.
In the case of U62C C123G it was 0.07.
Take C63U A79G: the self-cleavage amounted to 0.58.
The same measure for C61A U130A: 0.06; for C63U A69G: 0.17; for U62C C66A: 0.02.
Turning to A59U A69U, the self-cleavage worked out at 0.04.
The same measure for A59U C95U: 0.19; for A64C C145U: 0.4; for A64G C76U: 0.13.
For the variant C61A A140G, the self-cleavage was 0.05.
A59U A64G: the self-cleavage is 0.09.
For the variant U62A U115C, the self-cleavage was found to be 0.04.
In the case of G60U U62C it was 0.08; in that of U62A G82A, 0.03; in that of C63U A129G, 0.3.
Regarding U62G U130C, the self-cleavage came out at 0.11.
In the case of U62A G144A it was 0.05; in that of C61G A67U, 0.04.
The same measure for A64G A78U: 0.23.
In the case of C61U G106A it was 0.02.
Regarding U62C U102A, the self-cleavage was 0.04.
As for G60A U81C, the self-cleavage worked out at 0.03.
The same measure for G60A U81A: 0.02.
The same measure for U62C A136U: 0.05.
Take U62C A136C: the self-cleavage was determined as 0.1.
For C61U A79G, the self-cleavage was determined as 0.01.
With U62C A65U, the self-cleavage came out at 0.01.
Turning to U62A A124G, the self-cleavage came out at 0.02.
In the case of A59G U104A, the self-cleavage turned out to be 0.14.
Consider C63A U81A, for which the self-cleavage came to 0.06.
In the case of G60U A79G it was 0.05; in that of U62C U115A, 0.04.
As to U62C U115C, the self-cleavage was found to be 0.1.
As to U62C C99U, the self-cleavage is 0.04.
The same measure for A64C A67G: 0.04; for A59G U73C: 0.07.
With G60A A117G, the self-cleavage is 0.11.
Regarding A64G A140G, the self-cleavage turned out to be 0.26.
In the case of G60A A92G it was 0.03.
In the case of C61A A129U it was 0.03; in that of C61U A107G, 0.03.
Consider A64C U96C, for which the self-cleavage was found to be 0.18.
The same measure for U62A U81A: 0.05.
The same measure for U62A U81C: 0.04; for C61U U81A: 0.02; for U62A A129G: 0.06.
Turning to G60A U143A, the self-cleavage came to 0.05.
The same measure for G60U U91C: 0.01; for A64C A138G: 0.31.
For A59G U134A, the self-cleavage was determined as 0.08.
Turning to A64G A138U, the self-cleavage stood at 0.27.
In the case of A59U G75A it was 0.51; in that of G60U U100A, 0.02.
The same measure for U62G U115G: 0.14.
The same measure for C61U A77U: 0.03; for U62C G74A: 0.04; for A59G G127A: 0.07.
Regarding A59U U132C, the self-cleavage came to 0.71.
The same measure for U62C A121U: 0.04.
The same measure for U62C A121G: 0.1; for U62C C118U: 0.03; for U62A C66U: 0.01.
In the case of A64G A67G it was 0.09; in that of A64G A67U, 0.11; in that of U62A C99A, 0.03.
A64G A124G: the self-cleavage came out at 0.28.
Turning to U62C U87C, the self-cleavage was determined as 0.05.
The same measure for U62C U87A: 0.04; for C63A U104C: 0.07.
In the case of U62C A69U it was 0.03; in that of U62A C120U, 0.02; in that of C61G A129C, 0.03.
In the case of U62C A140U it was 0.04; in that of C61U A65C, 0.03; in that of U62C G126U, 0.04.
Turning to U62C G126C, the self-cleavage stood at 0.01.
Consider U62A U104C, for which the self-cleavage amounted to 0.1.
Regarding U62A U104A, the self-cleavage turned out to be 0.04.
In the case of A64C A65U it was 0.06; in that of A64C A65G, 0.19.
Take A64C U115C: the self-cleavage worked out at 0.47.
In the case of A64C U115A it was 0.38; in that of U62A G86A, 0.05.
As for G60A A124U, the self-cleavage turned out to be 0.02.
In the case of A59U A79G it was 0.83; in that of G60C U134A, 0.07; in that of C63A U73A, 0.06.
In the case of C63A A94G it was 0.08; in that of U62C G122A, 0.04; in that of U62C G122C, 0.03.
Regarding A64G A69C, the self-cleavage was found to be 0.
The same measure for A64G A69U: 0.08; for A64G A69G: 0.07; for C61G C145U: 0.03.
In the case of U62C G88U it was 0.04; in that of A59U U143A, 0.75; in that of C61U U73G, 0.16.
For C61U U73A, the self-cleavage is 0.02.
The same measure for A59U U96C: 0.24.
With A64C A141U, the self-cleavage is 0.3.
In the case of A64C A141G, the self-cleavage is 0.48.
The same measure for C61U A141G: 0.05; for U62C U134C: 0.05.
As for U62C U134A, the self-cleavage was 0.05.
As for A59U A141G, the self-cleavage was 0.96.
With A59U A141U, the self-cleavage was 1.03.
With U62C C103A, the self-cleavage is 0.04.
The same measure for A64C U108C: 0.39; for A59U U104A: 0.81.
The same measure for G60U U85C: 0.03.
In the case of A64C U87C it was 0.22.
In the case of A59U A136G, the self-cleavage came out at 1.1.
As to A64C U81G, the self-cleavage came to 0.3.
Take A64C U81A: the self-cleavage stood at 0.44.
For the variant C63A A79G, the self-cleavage was 0.12.
In the case of U62A C84U, the self-cleavage came to 0.04.
In the case of U62A U73C it was 0.02; in that of C61U A140G, 0.03.
The same measure for U62A G83A: 0.05; for U62C C95U: 0.03; for A59G G126A: 0.12.
The same measure for U62C U91G: 0; for C61U U62G: 0.01.
Consider U62G C63U, for which the self-cleavage came out at 0.07.
The same measure for A59G U96A: 0.07; for A64G C66U: 0.08.
As to C63U U112C, the self-cleavage worked out at 0.29.
For the variant G60U A117G, the self-cleavage was 0.04.
In the case of U62C C113G it was 0.07; in that of A64C U134C, 0.61.
In the case of A59U U119C it was 0.6; in that of C61A U104C, 0.04.
Regarding A59U A138U, the self-cleavage was 0.88.
In the case of A59U A138C it was 1.23; in that of A59U A138G, 0.83.
With U62C U109A, the self-cleavage was determined as 0.03.
In the case of U62C U109C it was 0.08.
For U62A U143G, the self-cleavage is 0.08.
The same measure for U62A U143C: 0.05; for A64G A107G: 0.33.
